This assay has as its target human PD-1 (residues 33–150, Cys93 exchanged to serine) (human, UniProt Q15116 33-150, Cys93 exchanged to serine, uniform 15N labelling). In words: NMR titration; 1H-15N HMQC, 300K; AIDA: 15N-labeled PD-1 (0.2 mM) slightly overtitrated with unlabeled PD-L1; for the mutants also NMR-monitored direct titration; PBS pH 7.4 (PD-L1) or 25 mM sodium phosphate, 100 mM NaCl pH 6.4 (PD-1). As to conditions: both partners purified.

Chain of human PD-1 (residues 33–150, Cys93 exchanged to serine) (Q15116 other isoform, or with tags, fused parts or gaps Cys93 exchanged to serine | Cys93 exchanged to serine): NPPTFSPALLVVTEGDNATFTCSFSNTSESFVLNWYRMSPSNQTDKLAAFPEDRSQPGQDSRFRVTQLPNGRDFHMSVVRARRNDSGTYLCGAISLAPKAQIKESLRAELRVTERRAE

B1: human PD-L1 (residues 18–134, C-terminal His-tag) (domain or fragment)
chain: AFTVTVPKDLYVVEYGSNMTIECKFPVEKQLDLAALIVYWEMEDKNIIQFVHGEEDLKVQHSSYRQRARLLKDQLSLGNAALQITDVKLQDAGVYRCMISYGGADYKRITVKVNAPY
modifications: NTA-Atto 647 N fluorescent dye on the His-tag (flow cytometry only); uniform 15N labelling (NMR titration with compounds only)
notes: PD-L1, human, residues 18-134 (Ig-like V-type domain); also called sPD-L1; soluble PD-L1; source: expressed and purified as described previously [26]; 15N labelling in M9 minimal medium; not shown: His-tag, C-terminal, kept
Take B1: the binding result is listed as “binds”.

The values above are taken from paper PMC5641120 (Oncotarget, 2017).
